Experimental data published in patent KR20220054080A (dated 2022).
Read-outs that look alike come from different tables or passages of the source.

How the values were obtained:
[1] = target: T1, SARS-CoV 스파이크 [change] (#40150-V08B1, Sino Biological) (SARS-CoV, UniProt P59594 14-667); assay: ELISA, coated S1-His
SARS-CoV-2 RBD-hFc [2] = target: T2, SARS-CoV-2 RBD-hFc (SARS-CoV-2, UniProt P0DTC2 319-541); assay: cell-based or functional assay
[3] = target: T3, SARS-CoV-2 spike protein on live SARS-CoV-2 virus (SARS-CoV-2, UniProt P0DTC2 14-1273); assay: cell-based or functional assay
SARS-CoV-2 RBD-hFc [4] = target: T2, SARS-CoV-2 RBD-hFc; assay: cell-based or functional assay; remark: listed apart in the source
[5] = target: T3, SARS-CoV-2 spike protein on live …; assay: cell-based or functional assay; remark: listed apart in the source
[6] = target: SARS-CoV RBD-His (#40150-V08B2, Sino Biological) (SARS-CoV, UniProt P59594 306-527); assay: ELISA, coated His-tagged antigen
SARS-CoV-2 스파이크 S1-mFc [7] = target: T4, SARS-CoV-2 스파이크 S1-mFc (SARS-CoV-2, UniProt P0DTC2 16-685); assay: competition ELISA: S1-mFc on coated ACE2-His
T4 construct: range 16-685

SARS-CoV-2 스파이크 S1-mFc [8] = target: T4, SARS-CoV-2 스파이크 S1-mFc; assay: competition ELISA: S1-mFc on coated ACE2-His; remark: listed apart in the source
SARS-CoV-2 RBD-mFc [9] = target: T5, SARS-CoV-2 RBD-mFc (SARS-CoV-2, UniProt P0DTC2 319-541); assay: competition ELISA: RBD-mFc on coated ACE2-His
T5 construct: range 319-541

SARS-CoV-2 RBD-mFc [10] = target: T5, SARS-CoV-2 RBD-mFc; assay: competition ELISA: RBD-mFc on coated ACE2-His; remark: listed apart in the source
SARS-CoV-2 RBD-mFc [11] = target: T5, SARS-CoV-2 RBD-mFc; assay: flow cytometry competition: RBD-mFc on HEK293E/ACE2 cells
SARS-CoV-2 RBD-mFc [12] = target: T5, SARS-CoV-2 RBD-mFc; assay: as above; remark: listed apart in the source
SARS-CoV-2 RBD-mFc [13] = target: T5, SARS-CoV-2 RBD-mFc; assay: Octet QKe BLI, 1:1 global fit
[14] = target: T1, SARS-CoV 스파이크 [change] (#40150-V08B1, …); assay: ELISA, coated S1-His, as Example 5.2
SARS-CoV-2 RBD-mFc [15] = target: T5, SARS-CoV-2 RBD-mFc
SARS-CoV-2 스파이크 S1-mFc [16] = target: T4, SARS-CoV-2 스파이크 S1-mFc
SARS-CoV-2 RBD-mFc [17] = target: T5, SARS-CoV-2 RBD-mFc; remark: listed apart in the source
SARS-CoV-2 RBD-mFc [18] = target: T5, SARS-CoV-2 RBD-mFc; assay: Octet QKe BLI, 1:1 global fit; remark: listed apart in the source

| Binder | binding result [1] | IC50, 세포내 유입(internalization) 억제, HEK293E/ACE2-GFP (SARS-CoV-2 RBD-hFc [2]) | IC50, live SARS-CoV-2 미세중화분석, Vero 세포 [3] | IC50, 세포내 유입(internalization) 억제, HEK293E/ACE2-GFP (SARS-CoV-2 RBD-hFc [4]) | IC50, live SARS-CoV-2 미세중화분석, Vero 세포, 72시간 [5] | binding result [6] | IC50 (SARS-CoV-2 스파이크 S1-mFc [7]) | IC50 (SARS-CoV-2 스파이크 S1-mFc [8]) | IC50 (SARS-CoV-2 RBD-mFc [9]) | IC50 (SARS-CoV-2 RBD-mFc [10]) | IC50 (SARS-CoV-2 RBD-mFc [11]) | IC50 (SARS-CoV-2 RBD-mFc [12]) | Kd (SARS-CoV-2 RBD-mFc [13]) | koff (SARS-CoV-2 RBD-mFc [13]) | kon (SARS-CoV-2 RBD-mFc [13]) | binding result [14] | Kd (SARS-CoV-2 RBD-mFc [18]) | koff (SARS-CoV-2 RBD-mFc [18]) | kon (SARS-CoV-2 RBD-mFc [18]) | also measured |
| --- | --- | --- | --- | --- | --- | --- | --- | --- | --- | --- | --- | --- | --- | --- | --- | --- | --- | --- | --- | --- |
| SA3838 (antibody, V domains shown) VH: QVQLVESGAEVKKPGASVRVSCKISGYIFTELSIHWVRQAPGKGLEWMGGFDPEEGKTIYAQKFQGRVTMTEDTSTDTAYMELSSLRSEDTAVYYCAKIGHLGDFWYWGQGTLITVSS VL: QSALTQPASVSGSPGQSITISCTGTTSDIGSYDYVSWYQQHPGKAPKLIIYGVTRRPSGVSNRFSGSKSGNTASLTISRLLTEDEAEYYCATYTSSATYVFGTGTKVTVL | no binding (tested: 50 nM) | 36.1 nM | 9.4 nM | 42.8 nM | 13.5 nM | no binding | 1.2 nM | 2.25 nM | 2.2 nM | 1.62 nM | 3.38 nM | 2.99 nM |  |  |  |  |  |  |  |  |
| SA4118 (antibody, V domains shown) VH: QVQLVESGAEVKKPGASVRVSCKISGYIFTELSIHWVRQAPGKGLEWMGGFDPEEGKTIYAQKFQGRVTMTEDTSTDTAYMELSSLRSEDTAVYYCAKIGHLGDFWYWGQGTLITVSS VL: QSALTQPASVSGSPGQSITISCTGTTSDIGSYDYVSWYQQHPGKAPKLIIYGVTRRPSGVSNRFSGSKSGNTASLTISGLQAEDEANYYCSSCTRSSTYVFGTGTKVTVL |  |  |  | 31.4 nM | 8.29 nM | no binding |  | 2.28 nM |  | 0.709 nM |  | 2.71 nM | 0.0296 nM | 2.05e-05 s⁻¹ | 695000 M⁻¹ s⁻¹ | no binding |  |  |  |  |
| SA3755 (antibody, V domains shown) VH: QMQLVESGGGVVQPGGSLRLSCAASGFTFDDHTMHWVRQAPGKGLEWVSLISWDGGSTYYADSVKGRFTISRDNSKNSLYLQMNSLRAEDTAVYYCTRDASRRPGDGGYDFDVWGQGTQVTVSS VL: QAVVTQEPSLTVSPGGTVTLTCGSSTGTVTRGHWPYWFQQKPGQAPRTLIYDTDNKHSWTPARFSGSLLGGKAALTLSGAQPEDEADYYCLLSYSDSRVFGTGTKVTVL | no binding (tested: 50 nM) | 40 nM | 8.74 nM | 35.8 nM | 5.12 nM | no binding | 4.06 nM | 4.67 nM | 7.74 nM | 5.71 nM | 3.8 nM | 3.09 nM |  |  |  |  | 1.06 nM | 0.000424 s⁻¹ | 399000 M⁻¹ s⁻¹ | IC50 (SARS-CoV-2 RBD-mFc [15]): 23.1 nM; IC50 (SARS-CoV-2 스파이크 S1-mFc [16]): 8.27 nM; IC50 (SARS-CoV-2 RBD-mFc [17]): 2.26 nM |
| SA4079 (antibody, V domains shown) VH: QMQLVESGGGVVQPGGSLRLSCAASGFTFDDHTMHWVRQAPGKGLEWVSLISWDGGSTYYADSVKGRFTISRDNSKNSLYLQMNSLRAEDTAVYYCTRDASRRPGDGGYDFDVWGQGTQVTVSS VL: QAVVTQEPSLTVSPGGTATLTCGSSTGTVTRGHWPYWFQQKPGQAPRTLIYDTDTKHSWTPARFSGSLLGGKAALTLSGAQPEDEADYYCLLSYSDSRVFGTGTKVTVL |  |  |  | 40 nM | 2.74 nM | no binding |  | 2.71 nM |  | 3.62 nM |  | 2.35 nM | 0.154 nM | 5.73e-05 s⁻¹ | 373000 M⁻¹ s⁻¹ | no binding |  |  |  |  |
| SA3779 (antibody, V domains shown) VH: QVQLVESGGGVVQPGRSLRLSCAASGFTFSSYAMHWVRQAPGKGLEWVAVISYDGSNKYYADSAKGRFTISRDNSKNTLYLQMNSLRAEDTAVYYCARRGHYYDSSGYLYWGHGTLITVSS VL: DIQMTQSPSSLSASVGDRVTITCRASQRIATYLHWYQQKPGRAPKLLIYAASSLQTGVPSRFSGSGSGTDFTLTINSLQPEDFATYYCQQSYAIPYTFGQGTKLEIK | no binding (tested: 50 nM) | 18.9 nM | 56.8 nM | 27.3 nM | 45.6 nM | no binding | 4.03 nM | 3.59 nM | 11.2 nM | 7.96 nM | 2.84 nM | 2.65 nM |  |  |  |  | 1.05 nM | 0.000223 s⁻¹ | 213000 M⁻¹ s⁻¹ |  |
| SA3827 (antibody, V domains shown) VH: QVQLVESGGTLVQPGRSLRLSCAASGFTFSSYAMHWVRQAPGKGLEWVAVISYDGSNKYYADSVKGRFTISRDNSKNTLYLQMNSLRAEDTAVYYCARRGHYYDSSGFLYWGQGTLVTVSS VL: DIQMTQSPSSLSASVGDRVTITCRASQSISTYLSWYQQKPGKAPKLLIYAASNLQSGVPSRFSASGSGTDFTLTISSLQPEDFATYYCQQSYNTPRTFGQGTKVEIK | no binding (tested: 50 nM) | 12.9 nM | 8.92 nM | 18.3 nM | 7.94 nM | no binding | 0.61 nM | 0.9 nM | 0.914 nM | 0.321 nM | 2.74 nM | 2.71 nM |  |  |  |  | 0.452 nM | 0.000173 s⁻¹ | 383000 M⁻¹ s⁻¹ |  |
| SA4114 (antibody, V domains shown) VH: QVQLVESGGTLVQPGRSLRLSCAASGFTFSSYAMHWVRQAPGKGLEWVAVISYDGSNKYYADSVKGRFTISRDNSKNTLYLQMNSLRAEDTAVYYCARRGHYYDSSGFLYWGQGTLVTVSS VL: DIQMTQSPSSLSASVGDRVTITCRAGQSIDNYLNWYQQKPGKAPKLLIYAASTLHSGVPSRFSGSGSGTDFTLTISSLQPDDFATYYCQQSYSIPRTFGQGTKLEIK |  |  |  | 24.1 nM | 12.8 nM | no binding |  | 1.19 nM |  | 0.364 nM |  | 2.39 nM | 0.0899 nM | 3.89e-05 s⁻¹ | 433000 M⁻¹ s⁻¹ | no binding |  |  |  |  |
| SA4086 (antibody, V domains shown) VH: QVQLVESGGGVVQPGRSLRLSCAASGFTFSSYAMHWVRQAPGKGLEWVAVISYDGSNKYYADSAKGRFTISRDNSKNTLYLQMNSLRAEDTAVYYCARRGHYYDSSGYLYWGHGTLITVSS VL: DIQMTQSPSSLSASVGDRVTITCRASQSISTYLSWYQQKPGKAPKLLIYAASNLQSGVPSRFSASGSGTDFTLTISSLQPEDFATYYCQQSYNTPRTFGQGTKVEIK |  |  |  | 27.2 nM | 12.4 nM | no binding |  | 1.28 nM |  | 1.24 nM |  | 2.47 nM | 0.106 nM | 4.99e-05 s⁻¹ | 471000 M⁻¹ s⁻¹ | no binding |  |  |  |  |
